In patent US20040038299A1 (Pfizer, published 2004):

Molecular target: T1, N-terminal FLAG-tagged full length LTβR (UniProt P36941 31-435)
T1 construct: whole, on cells; Overexpressed in HEK293 cells, immunoprecipitated from lysate with M2 beads; also called Flag-tagged LTβR; pFlag-CMV2-LTβR; not shown: N-terminal FLAG tag from pFLAG-CMV2
Experiment: co-immunoprecipitation in transfected HEK293 cells, Western blot
Method: For immunoprecipitation, 1×10⁸ U937 cells were treated with FLAG-LIGHT at 20 ng/ml for different time or left untreated. Cells were then harvested and lysed in 4 ml of lysis buffer (see above). Cell debris was removed by centrifugation at 14,000+ g for 10 min and resulting lysate was pre-cleared with Gamma Binding beads (Pharmacia Biotech) for 1 hour at 4° C. Then 20 µl of M2 beads were added to cell lysate and incubated at 4° C. for 3 hours. After binding, beads were washed five times with lysis buffer. Immune complexes bound to the beads were eluted with sample buffer, resolve on 4-12% SDS-PAGE gels, transferred to PVDF membrane and probed with TRAF2, TRAF3 or cIAP1 antibody. Signals were detected with HRP-conjugated secondary antibody and ECL detection kits (Amersham Pharmacia Biotech). […] The presence of Smac, LTβR, TRAF2 and cIAP1 in the immune complex were then analyzed by Western blots.
Although two peptides from Smac in the LIGHT-LTβR complex were detected by mass spectrometry, an endogenous association was not detected using Smac antibodies (Alexis Biochemicals or Cell Signaling Technology). […] Smac was expressed as a C-terminal HA-tagged fusion protein and appeared as a doublet of 28 kDa and 23 kDa on the Western blot. […]

T1 sequence (P36941 31-435): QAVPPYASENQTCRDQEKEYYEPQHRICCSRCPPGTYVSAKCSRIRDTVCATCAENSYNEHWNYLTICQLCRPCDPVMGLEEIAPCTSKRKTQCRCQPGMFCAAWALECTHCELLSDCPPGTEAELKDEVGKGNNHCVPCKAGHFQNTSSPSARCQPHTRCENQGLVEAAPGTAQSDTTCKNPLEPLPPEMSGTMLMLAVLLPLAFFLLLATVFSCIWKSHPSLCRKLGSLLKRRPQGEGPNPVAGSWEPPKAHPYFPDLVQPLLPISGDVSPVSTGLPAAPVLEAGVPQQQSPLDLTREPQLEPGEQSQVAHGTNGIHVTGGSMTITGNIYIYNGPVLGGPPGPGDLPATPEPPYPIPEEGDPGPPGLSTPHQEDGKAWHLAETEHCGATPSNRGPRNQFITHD

B1: Δ76 deletion mutant of Smac with a C-terminal HA-tag (other)
chain: RAVSLVTDSTSTFLSQTTYALIEAITEYTKAVYTLTSLYRQYTSLLGKMNSEEEDEVWQVIIGARAEMTSKHQEYLKLETTWMTAVGLSEMAAEAAYQTGADQASITARNHIQLVKLQVEEVHQLSRKAETKLAEAQIEELRQKTQEEGEERAESEQEAYLRED
notes: also called ?76Smac; ?76 Smac; not shown: C-terminal HA tag
binding result: no binding
